Data on three sequences can be found in patent US20190032060.

For data set [1], the target named is Insulin receptor, endogenous on 3T3-L1 adipocytes (UniProt P15208+P15208). As to the kind of experiment: cell_activity. As to conditions: 6 Nap-dU (n positions) [n positions 8,10,11,21,23,27 = modified dU]; 2-deoxyglucose uptake, 4 h treatment.
Data set [2] has as its target T1, Insulin receptor (extracellular domain) (Homo sapiens?) (UniProt P06213+P06213). As to the kind of experiment: filter. The settings on record: 200 mM HEPES, 510 mM NaCl, 25 mM KCl, 25 mM MgCl2, 37 C.
For data set [3], the target named is T1, Insulin receptor (extracellular domain). As to the kind of experiment: FP. The settings on record: 6 Nap-dU stated (n positions) [n positions 3,4,10,14,16,20,24 = modified dU]; filter binding assay in fact (see method p97-p99); 200 mM HEPES, 510 mM NaCl, 25 mM KCl, 25 mM MgCl2, 37 C.

Chain of Insulin receptor, endogenous on 3T3-L1 adipocytes (P15208 28-748, chain 1 of 2): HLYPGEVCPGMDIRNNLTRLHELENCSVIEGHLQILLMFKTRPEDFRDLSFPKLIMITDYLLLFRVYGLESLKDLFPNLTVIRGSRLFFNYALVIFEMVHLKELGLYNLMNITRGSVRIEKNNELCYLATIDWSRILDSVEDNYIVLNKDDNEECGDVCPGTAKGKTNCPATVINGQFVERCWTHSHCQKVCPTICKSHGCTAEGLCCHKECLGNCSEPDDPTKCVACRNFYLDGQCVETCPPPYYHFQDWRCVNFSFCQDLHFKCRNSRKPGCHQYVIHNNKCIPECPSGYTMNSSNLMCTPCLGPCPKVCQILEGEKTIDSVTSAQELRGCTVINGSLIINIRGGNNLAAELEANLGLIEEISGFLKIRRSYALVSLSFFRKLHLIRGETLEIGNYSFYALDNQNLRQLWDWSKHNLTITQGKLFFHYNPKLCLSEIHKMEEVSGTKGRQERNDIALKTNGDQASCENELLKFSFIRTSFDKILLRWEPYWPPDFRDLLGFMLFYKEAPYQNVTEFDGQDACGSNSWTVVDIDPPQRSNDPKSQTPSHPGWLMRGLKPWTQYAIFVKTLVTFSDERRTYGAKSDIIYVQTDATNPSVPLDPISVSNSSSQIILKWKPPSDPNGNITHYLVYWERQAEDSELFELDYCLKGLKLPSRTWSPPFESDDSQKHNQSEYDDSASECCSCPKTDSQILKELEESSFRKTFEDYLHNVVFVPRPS
Chain of Insulin receptor, endogenous on 3T3-L1 adipocytes (P15208 753-1372, chain 2 of 2): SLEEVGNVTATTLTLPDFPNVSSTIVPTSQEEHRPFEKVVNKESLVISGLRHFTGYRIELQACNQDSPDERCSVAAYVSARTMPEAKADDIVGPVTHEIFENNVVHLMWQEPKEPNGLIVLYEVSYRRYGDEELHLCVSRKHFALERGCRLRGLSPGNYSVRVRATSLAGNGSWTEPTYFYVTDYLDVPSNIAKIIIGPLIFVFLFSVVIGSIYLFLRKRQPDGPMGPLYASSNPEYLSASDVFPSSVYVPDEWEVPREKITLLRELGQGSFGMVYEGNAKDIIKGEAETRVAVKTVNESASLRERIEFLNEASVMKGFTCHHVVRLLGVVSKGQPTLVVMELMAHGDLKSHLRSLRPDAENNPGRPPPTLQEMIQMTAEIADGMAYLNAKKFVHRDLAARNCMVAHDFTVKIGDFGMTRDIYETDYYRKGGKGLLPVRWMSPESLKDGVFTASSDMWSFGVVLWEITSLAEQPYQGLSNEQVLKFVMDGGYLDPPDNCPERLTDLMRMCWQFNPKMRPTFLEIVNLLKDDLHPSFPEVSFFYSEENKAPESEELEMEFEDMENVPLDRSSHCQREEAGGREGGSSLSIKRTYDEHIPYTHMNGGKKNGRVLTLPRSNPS

With “CGCCTGGTGTTAAGACAACCTCTAGGTCAGGCG [IR-A48]”, the half-maximal effective concentration (EC50) in data set [1] came out at 66.2 nM. This sequence displayed a dissociation constant (Kd) in data set [2] (6 Nap-dU (n positions) [n positions 8,10,11,21,23,27 = modified dU]) of 3.5 nM.

In the case of “TATGAGTGACCGTCCGCCTGGTGTTAAGACAACCTCTAGGTCAGGCGCAGTGACGGGTAGCAGCCACACCACCAGCCAAA [IR-A48F]”, the Kd in data set [2] (8 Nap-dU in the variable region (n positions) [n positions 22,24,25,35,37,41,51,58 = modified dU]) was found to be 6.9 nM.

As to CATTACGCATGAGTCTAGATCCGTCAG [IR-A62], the Kd in data set [3] worked out at 2.4 nM.
